Data on 1 substance can be found in article PMC3938055.

Test [1] has as its target EGFP-CENP-S (human) (UniProt Q8N2Z9). The test can be described thus: FRET or BRET; acceptor photobleaching FRET at centromeres in living cells; EGFP donor, mCherry acceptor bleached in a 4-10 µm^2 region; E_FRET against EVAR of an unbleached region, Mann-Whitney rank-sum test. For orientation: In BRET a luciferase serves as donor, and the signal depends on an acceptor being close.

Test [2] deals with CENP-S-EGFP (human) (UniProt Q8N2Z9). The test is described as above.

In test [1], “CENP-T-mCherry (from UniProt Q96BT3 1-561) (natural protein)” registered an E FRET of 3 and a ΔE (E FRET – EVAR) of 4.5. In test [2], this substance came in with an E FRET of 4.15 and a ΔE (E FRET – EVAR) of 4.5.
